In publication PMC8285372, “Biochemical and functional characterization of mutant KRAS epitopes validates this oncoprotein for immunological targeting” (Nature Communications, 2021):

Assays:
Assay in all cases: fluorescence polarisation
[1] = molecular target: soluble HLA-A*11:01 class I molecule (fluorescence polarization assay)
[2] = molecular target: soluble HLA-A*03:01 class I molecule (fluorescence polarization assay)
[3] = molecular target: soluble HLA-A*02:01 class I molecule (fluorescence polarization assay)
[4] = molecular target: soluble HLA-B*07:02 class I molecule (fluorescence polarization assay)

Binder	IC50 [1]	IC50 [2]	IC50 [3]	IC50 [4]
VVVGARGVGK [KRAS G12R 7-16 peptide]	0.566 µM	3.24 µM		
ALLAVGATK [gp17-25 peptide, Melanocyte protein PMEL]	0.225 µM	0.962 µM		
KLVVVGARGV [KRAS G12R 5-14 peptide]			20.7 µM	
VVGARGVGK [KRAS G12R 8-16 peptide]	0.634 µM	5.3 µM		

Other lines, results leading:

IC50 [1]	IC50 [2]	IC50 [3]	IC50 [4]	Binder
			76.9 µM	GAGGVGKSAL [KRAS 10-19 wild-type peptide]
		10.9 µM		KLVVVGAGGV [KRAS 5-14 wild-type peptide]
